# Results published in patent US20250223336A1.
# pKd: −log10 of the molar value.
# What was measured:
# [1] = target: SARS-COV-2 spike protein on virus-like particles (VLPs) (SARS-COV-2) (UniProt P0DTC2); assay: cell-based or functional assay
# [2] = target: wild type SARS-COV-2 spike receptor binding domain (RBD), 6His-Strep-TEV-RBD construct, refolded from E. coli (SARS-COV-2) (UniProt P0DTC2)
substance,measurement,setting,value
"LCB3 de novo designed miniprotein (from Cao et al., synthesised through recombinant expression in E. coli) (designed binder)",reduction in FITC signal (VLP binding to A549 cells),[1],84%
same,pKd,[2],6.03
same,Response Amplitude,[2],73.5
